Experimental data reported in patent US8461305B2, “L-fucose α1→6 specific lectin” (J-Oil Mills, Inc., priority 2008, dated 2013).

Columns and labels:
glycoproteins = experiment: hemagglutinating inhibition test with glycoproteins (sugar binding specificity); format: cell-based
Excerpt: The sugar binding specificity of lectin also can be confirmed by using erythrocytes that can be specifically agglutinated by the lectin to investigate the sugar type that may inhibit the agglutination of the erythrocytes and the concentration thereof.
Various monosaccharides, oligosaccharides, and polysaccharides shown in Table 2 and glycoproteins shown in Table 3 were subjected to hemagglutinating inhibition test to evaluate PTL of Example 1 and the SRL of Example 2 with regard to the sugar binding specificity.
On a 96 well U-bottom microtiter plate, double dilution series of 10 μl of monosaccharide, oligosaccharide, polysaccharide, and glycoprotein solutions were prepared. Then, lectin solution adjusted in advance to have titer 4 was added in an amount of 10 μl to the respective wells. Then, the plate was subjected to a still-standing at a room temperature for one hour for sensitization. Then, 10 μl of 4%-red blood cell suspension was added to the respective wells and the plate was further subjected to a still-standing at a room temperature for one hour. […] The lowest concentration showing the inhibition was assumed as the minimum inhibition concentration. The lower the minimum inhibition concentration is, the higher the specificity to lectin is.
For comparison, the sugar binding specificity was evaluated using the following commercially-available lectins: Comparison Example 1: AAL (SEIKAGAKU BIOBUSINESS CORPORATION—J-OIL MILLS, Inc.), Comparison Example 2: AOL (TOKYO CHEMICAL INDUSTRY CO., LTD.—Gekkeikan Sake Company, Ltd.), Comparison Example 3: LCA (SEIKAGAKU BIOBUSINESS CORPORATION—J-OIL MILLS, Inc.), and Comparison Example 4: PSA (SEIKAGAKU BIOBUSINESS CORPORATION—J-OIL MILLS, Inc.).

[1] = frontal affinity chromatography (FAC), association constant to PA sugar chains having other L-fucose; format: binding; conditions: 25 degrees C.
How it was run: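 Lectin coupled via primary amines to NHS-activated sepharose in a miniature column, run in TBS (pH 7.4) at 0.125 ml/min and 25 degrees C. PA sugar chains (3.75 nM or 7.5 nM) applied in excess, with elution monitored by fluorescence (ex 310/em 380 nm). Ka calculated from front-end delay (V−Vo) versus PA rhamnose and effective ligand amount (Bt).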

B1: Pisum sativum agglutinin (protein)
chain: TETTSFLITKFSPDQQNLIFQGDGYTTKEKLTLTKAVKNTVGRALYSSPIHIWDRETGNVANFVTSFTFVINAPNSYNVADGFTFFIAPVDTKPQTGGGYLGVFNSAEYDKTTQTVAVEFDTFYNAAWDPSNRDRHIGIDVNSIKSVNTKSWKLQNGEEANVVIAFNAATNVLTVSLTYPNSLEEENVTSYTLSDVVSLKDVVPEWVRIGFSATTGAEYAAHEVLSWSFHSELSGTSSSKQAADA
minimum inhibition concentration of hemagglutination (glycoproteins; inhibitor: Asialofetuin): >250 μl/ml
minimum inhibition concentration of hemagglutination (glycoproteins; inhibitor: Asialomucin (pig)): >250 μl/ml
minimum inhibition concentration of hemagglutination (glycoproteins; inhibitor: Bovine blood serum albumin): >250 μl/ml
minimum inhibition concentration of hemagglutination (glycoproteins; inhibitor: Casein): >250 μl/ml
minimum inhibition concentration of hemagglutination (glycoproteins; inhibitor: Fetuin): >250 μl/ml
minimum inhibition concentration of hemagglutination (glycoproteins; inhibitor: Human immune globulin A): >250 μl/ml
minimum inhibition concentration of hemagglutination (glycoproteins; inhibitor: Human immune globulin G): >250 μl/ml
minimum inhibition concentration of hemagglutination (glycoproteins; inhibitor: Lactoferrin): >250 μl/ml
minimum inhibition concentration of hemagglutination (glycoproteins; inhibitor: Mucin (bovine)): >250 μl/ml
minimum inhibition concentration of hemagglutination (glycoproteins; inhibitor: Mucin (pig)): >250 μl/ml
minimum inhibition concentration of hemagglutination (glycoproteins; inhibitor: Ribonuclease): >250 μl/ml
minimum inhibition concentration of hemagglutination (glycoproteins; inhibitor: Thyroglobulin): 62.5 μl/ml
minimum inhibition concentration of hemagglutination (glycoproteins; inhibitor: Transferrin): >250 μl/ml
minimum inhibition concentration of hemagglutination (glycoproteins; inhibitor: α1-acidic glycoprotein): >250 μl/ml
association constant Ka ([1]; Sugar chain No. 419): <1000 M⁻¹
association constant Ka ([1]; Sugar chain No. 420): <1000 M⁻¹
association constant Ka ([1]; Sugar chain No. 718): <1000 M⁻¹
association constant Ka ([1]; Sugar chain No. 719): <1000 M⁻¹
association constant Ka ([1]; Sugar chain No. 720): <1000 M⁻¹
association constant Ka ([1]; Sugar chain No. 721): <1000 M⁻¹
association constant Ka ([1]; Sugar chain No. 722): <1000 M⁻¹
association constant Ka ([1]; Sugar chain No. 723): <1000 M⁻¹
association constant Ka ([1]; Sugar chain No. 726): <1000 M⁻¹
association constant Ka ([1]; Sugar chain No. 727): <1000 M⁻¹
association constant Ka ([1]; Sugar chain No. 728 (as listed in Table 5/12)): <1000 M⁻¹
association constant Ka ([1]; Sugar chain No. 729): <1000 M⁻¹
association constant Ka ([1]; Sugar chain No. 730): <1000 M⁻¹
association constant Ka ([1]; Sugar chain No. 731): <1000 M⁻¹
association constant Ka ([1]; Sugar chain No. 739): <1000 M⁻¹
association constant Ka ([1]; Sugar chain No. 909): <1000 M⁻¹
association constant Ka ([1]; Sugar chain No. 910): <1000 M⁻¹
association constant Ka ([1]; Sugar chain No. 931): <1000 M⁻¹
association constant Ka ([1]; Sugar chain No. 932): <1000 M⁻¹
association constant Ka ([1]; Sugar chain No. 933): <1000 M⁻¹
